Measurements published in article PMC6264893 (Nature, 2018).

Target: His6-tagged 13C,15N-H1 (human, UniProt P07305 1-194)
Experiment: NMR titration

Sequence of His6-tagged 13C,15N-H1 (P07305 whole entry): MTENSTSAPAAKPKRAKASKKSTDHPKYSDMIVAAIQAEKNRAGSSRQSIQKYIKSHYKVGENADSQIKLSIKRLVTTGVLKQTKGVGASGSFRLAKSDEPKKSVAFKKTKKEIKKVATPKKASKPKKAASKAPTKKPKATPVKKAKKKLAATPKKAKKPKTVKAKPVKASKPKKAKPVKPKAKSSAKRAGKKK

stoichiometry N: 1
B1: prothymosin α (unlabeled, wildtype) (natural protein, human, UniProt P06454 1-111, looked up)
chain: MSDAAVDTSSEITTKDLKEKKEVVEEAENGRDAPANGNAENEENGEQEADNEVDEEEEEGGEEEEEEEEGDGEEEDGDEDEEAESATGKRAAEDDEDDDVDTKKQKTDEDD
